Ends that are not written are not given here.
Biological target: the molecule itself
Assay: FRET or BRET; donor- (Rhodamine Red) and acceptor- (Atto647N) labelled peptides reconstituted together in 100 nm LUVs of C14:1, C16:1, C18:1 or C20:1 PC, without or with 30 mol% cholesterol; protein-to-lipid 1:1000; 50 mM HEPES, 150 mM KCl, pH 7.4

B1: Syntaxin 4 TMD (residues 262-297; sx-4TM) (peptide, UniProt Q12846 262-297, looked up)
peptide: ALENQKKARKKKVLIAICVSITVVLLAVIIGVTVVG
modifications: also: N-terminus: Rhodamine Red or Atto647N
notes: syntaxin 4 transmembrane domain with juxtamembrane stretch, Homo sapiens, residues 262-297; also called syntaxin 4 truncation mutant; source: synthetic peptide (Fmoc solid phase synthesis)
- binding result: binds
